Laboratory results: publication PMC7021315

Columns and labels:
[1] = target: recombinant Zika virus E protein (soluble E, lacking the stem-anchor region) (Zika virus); test: rate zonal ultracentrifugation in sucrose gradients; 3-5 ug E protein on sucrose gradients, 20 h at 38,000 rpm, 15°C, Beckman SW40 rotor; fractions quantified by ELISA (Strep-Tactin capture, mab A1 detection)
[2] = target: recombinant Zika virus E protein (soluble E, lacking the stem-anchor region) (Zika virus); test: SEC; Superdex 200 Increase 3.2/300 column, ÄKTA FPLC, TAN buffer pH 8.0

Substance: recombinant Zika virus E protein (soluble E, lacking the stem-anchor region) (domain or fragment)
- stoichiometry N [1]: 2
- stoichiometry N [2]: 2
